# The supplement of paper PMC10724198
# ± gives the standard deviation of the averaged measurements.
# Tested on: Saccharomyces cerevisiae
# Assay: protein stability index of tFT-peptide fusion (C-terminal peptide) (PSI (0-1 scale)); higher = more stable (slower turnover)
# Settings: genetic background: wild type; temperature: 30 C
# 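Note: PSI is a weighted mean of sequencing reads over stability bins, variants kept only with over 10 reads, mCherry proximal and sfGFP distal, peptide attached via GGGS linker.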
row,Sequence,protein stability index
1,PARLPSPSHPAS,0.776 ± 0.063
2,PARPLSRPPLPP,0.72 ± 0.052
3,PARTSAPPSPLI,0.686 ± 0.0075
4,PASEVLFMEFVT,0.753 ± 0.026
5,PASIVPPPPVPL,0.777 ± 0.13
6,PASPFPQTCPPP,0.737 ± 0.074
7,PASPHPPSPSPL,0.604 ± 0.022
8,PASPPPAPRPPP,0.65 ± 0.0081
9,PASPRDPLPRLP,0.764 ± 0.12
10,PASYSAPVSLFI,0.7035 ± 0.002
11,PATPPFSLPPPH,0.669 ± 0.025
12,PAVCIPLPARQL,0.743 ± 0.026
13,PCIRRRSISTLP,0.775 ± 0.11
14,PCLGATSNTGRY,0.732 ± 0.045
15,PCMLSEATQQAH,0.668 ± 0.049
16,PCPPLPGILSSL,0.674 ± 0.035
17,PCWPARVWVSFL,0.504 ± 0.013
18,PDASRRVPPPPD,0.663 ± 0.066
19,PDDGLSAPPAAF,0.722 ± 0.14
20,PDFPPSRTPPEF,0.624 ± 0.022
21,PDGPSIVVPGQG,0.678 ± 0.017
22,PDLTVYNLCGGC,0.774 ± 0.098
23,PDPPAPLPPHPV,0.669 ± 0.053
24,PDRPPVARATRP,0.719 ± 0.017
25,PDRPYPPPLVAR,0.694 ± 0.058
26,PDSLHTLRPPPP,0.653 ± 0.022

row,Sequence,protein stability index
1,PEDRCLDLLILC,0.5236 ± 0.004
2,PEPMYHNSLFRP,0.737 ± 0.018
3,PERPDPPVNDRN,0.62 ± 0.029
4,PETIIENIMKRR,0.688 ± 0.22
5,PFCYALPWAPPR,0.644 ± 0.076
6,PFFRASFSGLID,0.681 ± 0.061
7,PFIYSLPAPLPF,0.72 ± 0.035
8,PFLHQRLLDSVL,0.726 ± 0.1
9,PFLLPPLPPGPL,0.706 ± 0.062
10,PFLPSPHPSPSS,0.713 ± 0.022
11,PFPCPSLPPPFP,0.716 ± 0.022
12,PFPFSPPHSLVS,0.743 ± 0.027
13,PFPHPPPPSPTP,0.687 ± 0.021
14,PFPPPHTPLPPS,0.791 ± 0.016
15,PFPPPPRLHLPP,0.648 ± 0.04
16,PFPPPSAPPPSP,0.71 ± 0.015
17,PFPRPLSPLPFR,0.75 ± 0.074
18,PFPSIPLPPPSR,0.703 ± 0.03
19,PFQPPSLIPSRH,0.746 ± 0.026
20,PFSSPDLLRCPH,0.752 ± 0.024
21,PFSVDLPWPPWE,0.806 ± 0.053
22,PFSVQLPDVDCL,0.715 ± 0.16
23,PFSWRPLSSPTA,0.757 ± 0.004
24,PFVIKSWSYVTR,0.605 ± 0.02
25,PFVSGLSGQHEQ,0.637 ± 0.011
26,PFVSGWEKGRSF,0.757 ± 0.033

row,Sequence,protein stability index
1,PFYTNSSFCSLT,0.6677 ± 0.00075
2,PGASAKPHSSAN,0.712 ± 0.031
3,PGGQLRSHPPNV,0.718 ± 0.013
4,PGIHRPLAVEDL,0.676 ± 0.032
5,PGKSGRKLVSSG,0.681 ± 0.012
6,PGLDPFHGMNLS,0.6906 ± 0.0027
7,PGLQFPIWGVKG,0.71 ± 0.045
8,PGPPPGTDAFQH,0.718 ± 0.12
9,PGRSMCITLVKT,0.595 ± 0.0078
10,PGSADGPATYPL,0.65 ± 0.03
11,PGSLVLSVVDLV,0.683 ± 0.056
12,PGSQPPFVPPPR,0.604 ± 0.019
13,PGSSLAPAPPPP,0.683 ± 0.0088
14,PGSYLDAIVYHR,0.701 ± 0.01
15,PGTGGHKRASPV,0.6293 ± 0.0016
16,PGWGPLVARRFV,0.735 ± 0.025
17,PGYFGHVKLSCS,0.646 ± 0.023
18,PHAAERRKPCAP,0.768 ± 0.011
19,PHAPCPRPSVTV,0.625 ± 0.086
20,PHAPHFSRSIPS,0.745 ± 0.027
21,PHAPQSPGWLHG,0.7 ± 0.028
22,PHASLLPPSLSR,0.728 ± 0.0085
23,PHASRRPPTLLC,0.514 ± 0.01
24,PHATPPPTRPPS,0.777 ± 0.062
25,PHFSSLPWAPPG,0.749 ± 0.041
26,PHGSLPTRLPGP,0.689 ± 0.035

row,Sequence,protein stability index
1,PHIRPPQCTRPI,0.737 ± 0.015
2,PHLANLFTWSSC,0.66 ± 0.092
3,PHLPPLPPAPPP,0.724 ± 0.12
4,PHLPPRPFPTAP,0.757 ± 0.063
5,PHNPFPTRTPPP,0.71 ± 0.039
6,PHNRSNSWPNPR,0.714 ± 0.054
7,PHPERLLCPPYP,0.68 ± 0.024
8,PHPGQSAPPRPP,0.654 ± 0.038
9,PHPPGFGPGRTL,0.698 ± 0.068
10,PHPPLPLSPPPP,0.72 ± 0.0084
11,PHPPPAPDAPCV,0.683 ± 0.036
12,PHPPPLPPLPSP,0.721 ± 0.053
13,PHPPPPRPPPRS,0.642 ± 0.067
14,PHPSATPTPVPP,0.7001 ± 0.0017
15,PHPSPGAALFAN,0.643 ± 0.019
16,PHPTLATPPRRR,0.667 ± 0.096
17,PHPTTPPAPRPR,0.728 ± 0.0095
18,PHRAPPRETRLG,0.837 ± 0.015
19,PHSKADISQIGG,0.653 ± 0.0072
20,PHTEPVIVACSG,0.601 ± 0.033
21,PHTPSRPLSPAP,0.713 ± 0.063
22,PILFLGGSMGER,0.676 ± 0.011
23,PIPPPPPPPHSP,0.779 ± 0.043
24,PIPPPPPPPPDP,0.652 ± 0.017
25,PIPPSTRSLHPL,0.668 ± 0.027
26,PIQNHRFLPIVL,0.713 ± 0.036

row,Sequence,protein stability index
1,PIRAITQRSDGG,0.682 ± 0.045
2,PISIAVPCVLPP,0.6654 ± 0.00093
3,PISSYPPLPAPR,0.718 ± 0.06
4,PIYQTYSRHSYL,0.683 ± 0.0089
5,PKLAELKKISDR,0.68 ± 0.063
6,PKLSKLLQHSNV,0.658 ± 0.048
7,PLAPPFSPPPPP,0.645 ± 0.0082
8,PLAPPPPSSPPV,0.675 ± 0.083
9,PLCFSLFFPFRP,0.657 ± 0.0099
10,PLCPPPPTSPPP,0.666 ± 0.031
11,PLCPPYPPGRVP,0.6841 ± 0.0021
12,PLCRPARPRHHS,0.7256 ± 0.0015
13,PLCSPALHGPPP,0.736 ± 0.033
14,PLCSPPSPASNL,0.714 ± 0.067
15,PLDTPYMAYNSD,0.71 ± 0.033
16,PLECHTGVLGRL,0.709 ± 0.0086
17,PLEKASMTLWGR,0.691 ± 0.05
18,PLFAYCLIFPML,0.533 ± 0.018
19,PLFGLQTPTLHR,0.712 ± 0.057
20,PLFHLYRSSFPF,0.721 ± 0.029
21,PLFPRPFPPPRS,0.717 ± 0.0091
22,PLFSLVSLLLPI,0.628 ± 0.036
23,PLHLPPPFSPRP,0.7333 ± 0.0063
24,PLHPLTLPHLPT,0.665 ± 0.092
25,PLHSRPTRPKLE,0.71 ± 0.092
26,PLIASPQPPFPT,0.6692 ± 0.0036

row,Sequence,protein stability index
1,PLKKLTRIIPKL,0.747 ± 0.1
2,PLLALANSPLYR,0.6708 ± 0.005
3,PLLCPASIHVTL,0.679 ± 0.046
4,PLLEGRRRKSGG,0.635 ± 0.02
5,PLLFGGGGVSVL,0.70247 ± 0.00036
6,PLLFPSSPLPPS,0.63 ± 0.036
7,PLLGLFTRYFDT,0.7 ± 0.088
8,PLLLLLPALPPL,0.679 ± 0.026
9,PLLPILTSPPRR,0.71 ± 0.029
10,PLLPPLSPPLPS,0.7 ± 0.0078
11,PLLPPPLFSLLR,0.681 ± 0.015
12,PLLPPPPSLRSP,0.747 ± 0.1
13,PLLPRPPPLPPP,0.703 ± 0.055
14,PLLRPTRLLPET,0.699 ± 0.093
15,PLLTPLCSVSHS,0.689 ± 0.0072
16,PLNALLHSNPDK,0.711 ± 0.1
17,PLPCSPRLRLSF,0.646 ± 0.036
18,PLPLFPLPPVAP,0.66 ± 0.012
19,PLPLPPLPPPLP,0.656 ± 0.021
20,PLPLPPPPHCLS,0.702 ± 0.027
21,PLPLSSSLHSQR,0.702 ± 0.0084
22,PLPPAARPPSAL,0.729 ± 0.015
23,PLPPAPPPPPPP,0.728 ± 0.029
24,PLPPLPLAPSLP,0.708 ± 0.065
25,PLPPPFLHLPPP,0.683 ± 0.036
26,PLPPPGRPPLLP,0.639 ± 0.12

row,Sequence,protein stability index
1,PLPPPPFSVSPP,0.724 ± 0.012
2,PLPPPPLPPLPP,0.702 ± 0.028
3,PLPPPPRPRLPL,0.764 ± 0.047
4,PLPPPPSPLPHF,0.692 ± 0.013
5,PLPPPPVPPTPS,0.606 ± 0.012
6,PLPPPVPPPPPP,0.66 ± 0.017
7,PLPPRLPSPPSS,0.742 ± 0.044
8,PLPPRPAPPSSS,0.681 ± 0.015
9,PLPPRPPSPPPR,0.699 ± 0.037
10,PLPPSPYPSPSP,0.661 ± 0.028
11,PLPRLTRPSPPR,0.681 ± 0.067
12,PLPRPPPPPPPS,0.7 ± 0.048
13,PLPSAPVPPSAS,0.71002 ± 0.0003
14,PLQPRVLPSPRR,0.688 ± 0.0011
15,PLRISPPPAPHP,0.7251 ± 0.0025
16,PLRSFSLRPFPL,0.775 ± 0.06
17,PLRVPPPPCSRS,0.722 ± 0.1
18,PLSCSPPLLSPS,0.678 ± 0.0089
19,PLSLAPPPLPPY,0.671 ± 0.061
20,PLSLFPSSQCWS,0.771 ± 0.038
21,PLSPPPLPFPLL,0.589 ± 0.0018
22,PLSPSAAPSAPS,0.737 ± 0.1
23,PLSTCLAARCPL,0.725 ± 0.085
24,PLSTFSLSSFTV,0.691 ± 0.045
25,PLTFGLGPVNLP,0.683 ± 0.054
26,PLTPCPSATPAY,0.648 ± 0.021

row,Sequence,protein stability index
1,PLTPVRCSICSV,0.64 ± 0.037
2,PLTRPTDNNPSN,0.774 ± 0.081
3,PLVFFAGLFLVD,0.509 ± 0.041
4,PLVSGMLTSHLA,0.6613 ± 0.0014
5,PLVSPPPLPHRP,0.69 ± 0.02
6,PLYLAYKDTLLS,0.69 ± 0.035
7,PLYPPLPTSLSS,0.769 ± 0.027
8,PLYPPPVNIPPT,0.81 ± 0.067
9,PLYSPPPHRYLL,0.653 ± 0.019
10,PMLGMSTLGDRF,0.657 ± 0.038
11,PMNVSDPRKVGR,0.556 ± 0.037
12,PNCAPLTAPRRR,0.7159 ± 0.0069
13,PNCTLVDSCWSI,0.699 ± 0.022
14,PNPPNSSNPPSP,0.7013 ± 0.0031
15,PNSPRCAIASPL,0.702 ± 0.046
16,PPAAPPPPPLPP,0.735 ± 0.039
17,PPAAPSPPPPRP,0.719 ± 0.012
18,PPADKRILQQIR,0.692 ± 0.039
19,PPAHPPPRLHPP,0.541 ± 0.018
20,PPALHPPPLPPR,0.646 ± 0.028
